In patent US20110059077A1 (JURIDICAL FDN THE CHEMO SERO THERAPEUTIC RES INST, published 2011):
Numbering of substitutions follows the chain as printed. Names and notes keep the numbering of the source.

B1: RY9A2v501 antibody (antibody, V domains shown)
VH: QVQLVQSGAEVKKPGSSVKMSCKASGYTLTTYWMHWVKQRPGQGLEWIGYINPSSGYTEYNQKFKDRVTITADKSTSTAYMELSSLRSEDTAVYYCAIYGDYGDFYFDYWGQGTTVTVSS
VL: DIQMTQSPSSLSASVGDRVTITCKASQSVNTDVAWYQQKPGKAPKLLIYFASNHYTGVPSRFSGSGSGTDFTFTISSLQPEDIATYYCRQDYSSPFTFGGGTKVEIKR
B2: RY9A2v801 antibody (antibody, V domains shown)
VH: B1 VH with M20V, K38R, R40A, I48M
VL: B1 VL
B3: mouse anti-human α9 integrin antibody Y9A2 (antibody, V domains shown)
VH: QVQLQQSGAELANPGASVKMSCKASGYTLTTYWMHWVKQRPGQGLEWIGYINPSSGYTEYNQKFKDKATLTADKSSSTAYMQLTSLTSEDSAVYYCAIYGDYGDFYFDYWGQGTTLTVSS
VL: SIVMTQTPKFLLVSAGDRVTMTCKASQSVNTDVAWFQQKPGQSPKLLIYFASNHYTGVPDRFTGSGYGTDFTFTISTVQAEDLAIYFCRQDYSSPFTFGGGTKLEIKR
B4: RY9A2v11(M34L)012 antibody (antibody, human IgG1, kappa, V domains shown)
VH: B1 VH with M34L, K65Q, D66G
VL: B1 VL with K24R
B5: RY9A2v12(M34L)012 antibody (antibody, human IgG1, kappa, V domains shown)
VH: B1 VH with M20V, M34L, K38R, R40A, I48M, K65Q, D66G
VL: B1 VL with K24R
B6: RY9A2v5(IAW)01 antibody (antibody, human IgG1, kappa, V domains shown)
VH: B1 VH with M34I, D104A, F105W
VL: B1 VL

target: T1, human α9 integrin molecule expressed on SW480 cells (human, UniProt Q13797 30-1035; P05556 21-798); test: cell-based or functional assay
T1 sequence (Q13797 30-1035, form in doubt, chain 1 of 2): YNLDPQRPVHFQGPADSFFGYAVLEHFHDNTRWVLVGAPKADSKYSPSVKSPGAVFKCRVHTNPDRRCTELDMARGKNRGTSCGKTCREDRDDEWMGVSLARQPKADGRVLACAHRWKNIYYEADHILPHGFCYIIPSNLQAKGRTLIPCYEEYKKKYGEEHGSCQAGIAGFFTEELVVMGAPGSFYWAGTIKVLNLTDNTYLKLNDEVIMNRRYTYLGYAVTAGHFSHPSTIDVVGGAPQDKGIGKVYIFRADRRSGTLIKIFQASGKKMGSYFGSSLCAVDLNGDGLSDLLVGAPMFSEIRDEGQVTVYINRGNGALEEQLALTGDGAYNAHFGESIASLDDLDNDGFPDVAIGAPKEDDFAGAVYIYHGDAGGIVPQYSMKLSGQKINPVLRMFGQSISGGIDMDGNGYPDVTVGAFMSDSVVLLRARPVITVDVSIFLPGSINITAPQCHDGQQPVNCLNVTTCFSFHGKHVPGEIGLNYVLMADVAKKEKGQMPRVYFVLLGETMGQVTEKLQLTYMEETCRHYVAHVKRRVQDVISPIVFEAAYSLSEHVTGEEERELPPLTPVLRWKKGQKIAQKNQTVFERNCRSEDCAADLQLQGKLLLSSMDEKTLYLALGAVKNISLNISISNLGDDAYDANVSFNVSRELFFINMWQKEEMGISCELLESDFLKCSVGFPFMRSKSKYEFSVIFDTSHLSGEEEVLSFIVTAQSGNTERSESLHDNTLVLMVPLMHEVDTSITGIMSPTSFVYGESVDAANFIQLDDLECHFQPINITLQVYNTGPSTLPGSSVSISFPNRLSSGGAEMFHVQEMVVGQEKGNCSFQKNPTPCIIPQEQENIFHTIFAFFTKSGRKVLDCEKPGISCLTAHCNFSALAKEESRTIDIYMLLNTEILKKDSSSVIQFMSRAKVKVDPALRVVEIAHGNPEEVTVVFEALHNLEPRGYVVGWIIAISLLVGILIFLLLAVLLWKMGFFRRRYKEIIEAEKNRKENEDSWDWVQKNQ
T1 sequence (P05556 21-798, form in doubt, chain 2 of 2): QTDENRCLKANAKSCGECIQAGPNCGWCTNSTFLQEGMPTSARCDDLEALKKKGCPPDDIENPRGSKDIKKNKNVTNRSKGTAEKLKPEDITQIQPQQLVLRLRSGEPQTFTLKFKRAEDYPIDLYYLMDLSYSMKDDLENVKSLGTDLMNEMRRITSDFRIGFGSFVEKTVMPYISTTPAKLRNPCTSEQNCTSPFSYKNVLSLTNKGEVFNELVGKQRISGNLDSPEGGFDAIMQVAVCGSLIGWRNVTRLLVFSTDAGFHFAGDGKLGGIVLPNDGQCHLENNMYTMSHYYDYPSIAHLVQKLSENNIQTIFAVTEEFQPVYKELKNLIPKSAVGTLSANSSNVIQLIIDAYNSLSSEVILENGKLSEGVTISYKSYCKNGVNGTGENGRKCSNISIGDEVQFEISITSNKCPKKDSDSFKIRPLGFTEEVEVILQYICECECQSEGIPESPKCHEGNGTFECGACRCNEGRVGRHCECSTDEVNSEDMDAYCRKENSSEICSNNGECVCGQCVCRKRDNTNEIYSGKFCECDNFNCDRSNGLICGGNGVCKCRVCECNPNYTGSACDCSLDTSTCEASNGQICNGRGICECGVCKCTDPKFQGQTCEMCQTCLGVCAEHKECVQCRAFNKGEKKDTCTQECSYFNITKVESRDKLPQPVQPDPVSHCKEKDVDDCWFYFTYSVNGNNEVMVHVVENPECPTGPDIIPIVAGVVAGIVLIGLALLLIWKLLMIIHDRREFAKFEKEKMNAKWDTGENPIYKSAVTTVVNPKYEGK

specific activity (IC50 relative to mouse Y9A2 = 1), cell adhesion inhibition, SW480/hα9 cells to nOPN-RAA	Binder
0.77 ratio to IC50 of mouse Y9A2	B1
0.82 ratio to IC50 of mouse Y9A2	B2
1 ratio to IC50 of mouse Y9A2	B3

target: T1, human α9 integrin molecule expressed on …; test: cell-based or functional assay; remark: another data set of the same source

specific activity (IC50 relative to mouse Y9A2 = 1), cell adhesion inhibition, SW480/hα9 cells to nOPN-RAA	Binder
0.23 ratio to IC50 of mouse Y9A2	B4
0.23 ratio to IC50 of mouse Y9A2	B5
0.29 ratio to IC50 of mouse Y9A2	B6
1 ratio to IC50 of mouse Y9A2	B3

target: T1, human α9 integrin molecule expressed on …; test: cell-based or functional assay; remark: another data set of the same source

specific activity (IC50 relative to mouse Y9A2 = 1), cell adhesion inhibition to human Tenascin C-RAA	specific activity (IC50 relative to mouse Y9A2 = 1), cell adhesion inhibition to human VCAM-1	Binder
0.35 ratio to IC50 of mouse Y9A2	0.44 ratio to IC50 of mouse Y9A2	B4
0.26 ratio to IC50 of mouse Y9A2	0.95 ratio to IC50 of mouse Y9A2	B5
0.44 ratio to IC50 of mouse Y9A2	1 ratio to IC50 of mouse Y9A2	B6
1 ratio to IC50 of mouse Y9A2	1 ratio to IC50 of mouse Y9A2	B3
